Measured values taken from paper doi:10.1101/2024.03.19.585775, “Septin filament assembly assist the lateral organization of membranes” (bioRxiv, 2024).
Where “and” joins values, the source holds several entries; their conditions need not be identical. Identical values can stand only once.

Legend:
[1] = target: the molecule itself; experiment: negative-stain transmission electron microscopy; octamers to filaments; 100 nM (legend; methods: 0.005 mg/ml) GFP-tagged septin hetero-octamers on lipid monolayers of 77.5% Egg-PC, 20% Liver-PI, 2.5% Brain-PI(4,5)P2; 20 mM Tris-HCl pH 8, 2 mM MgCl2, 400 µM GTP, 150 mM NaCl; overnight at 4 °C; 2% uranyl acetate
[2] = target: the molecule itself; experiment: atomic force microscopy; octamers to filaments; 5 nM septin-GFP incubated overnight on 2.5% mol PI(4,5)P2 supported lipid bilayers; imaged at room temperature in 20 mM Tris-HCl pH 8, 2 mM MgCl2, 150 mM NaCl

Row | Protein | stoichiometry N [1] | stoichiometry N [2]
1 | wild-type septin-GFP hetero-octamer (Cdc11-Cdc12-Cdc3-Cdc10-Cdc10-Cdc3-Cdc12-Cdc11) (complex, S. cerevisiae, Cdc11, septin of S. cerevisiae; Cdc12, septin of S. cerevisiae; Cdc3, septin of S. cerevisiae; Cdc10, septin of S. cerevisiae; Tag ends are read from the printed construct names MBP-Cdc12/(6xHis)Cdc3-GFP; The purified complex is named without MBP; also called GFP-tagged septin octamers; wild-type septin-GFP complexes; source: E. coli BL21 (DE3) Rosetta, co-expressed from two plasmids, purified …) chain 1: MSGIIDASSALRKRKHLKRGITFTVMIVGQSGSGRSTFINTLCGQQVVDTSTTILLPTDTSTEIDLQLREETVELEDDEGVKIQLNIIDTPGFGDSLDNSPSFEIISDYIRHQYDEILLEESRVRRNPRFKDGRVHCCLYLINPTGHGLKEIDVEFIRQLGSLVNIIPVISKSDSLTRDELKLNKKLIMEDIDRWNLPIYNFPFDEDEISDEDYETNMYLRTLLPFAIIGSNEVYEMGGDVGTIRGRKYPWGILDVEDSSISDFVILRNALLISHLHDLKNYTHEILYERYRTEALSGESVAAESIRPNLTKLNGSSSSSTTTRRNTNPFKQSNNINNDVLNPASDMHGQSTGENNETYMTREEQIRLEEERLKAFEERVQQELLLKRQELLQREKELREIEARLEKEAKIKQEE chain 2: MSAATATAAPVPPPVGISNLPNQRYKIVNEEGGTFTVMLCGESGLGKTTFINTLFQTVLKRADGQQHRQEPIRKTVEIDITRALLEEKHFELRVNVIDTPGFGDNVNNNKAWQPLVDFIDDQHDSYMRQEQQPYRTKKFDLRVHAVLYFIRPTGHGLKPIDIETMKRLSTRANLIPVIAKADTLTAQELQQFKSRIRQVIEAQEIRIFTPPLDADSKEDAKSGSNPDSAAVEHARQLIEAMPFAIVGSEKKFDNGQGTQVVARKYPWGLVEIENDSHCDFRKLRALLLRTYLLDLISTTQEMHYETYRRLRLEGHENTGEGNEDFTLPAIAPARKLSHNPRYKEEENALKKYFTDQVKAEEQRFRQWEQNIVNERIRLNGDLEEIQGKVKKLEEQVKSLQVKKSHLK chain 3: MSLKEEQVSIKQDPEQEERQHDQFNDVQIKQESQDHDGVDSQYTNGTQNDDSERFEAAESDVKVEPGLGMGITSSQSEKGQVLPDQPEIKFIRRQINGYVGFANLPKQWHRRSIKNGFSFNLLCVGPDGIGKTTLMKTLFNNDDIEANLVKDYEEELANDQEEEEGQGEGHENQSQEQRHKVKIKSYESVIEENGVKLNLNVIDTEGFGDFLNNDQKSWDPIIKEIDSRFDQYLDAENKINRHSINDKRIHACLYFIEPTGHYLKPLDLKFMQSVYEKCNLIPVIAKSDILTDEEILSFKKTIMNQLIQSNIELFKPPIYSNDDAENSHLSERLFSSLPYAVIGSNDIVENYSGNQVRGRSYPWGVIEVDNDNHSDFNLLKNLLIKQFMEELKERTSKILYENYRSSKLAKLGIKQDNSVFKEFDPISKQQEEKTLHEAKLAKLEIEMKTVFQQKVSEKEKKLQKSETELFARHKEMKEKLTKQLKALEDKKKQLELSINSASPNVNHSPVPTKKKGFLR chain 4: MDPLSSVQPASYVGFDTITNQIEHRLLKKGFQFNIMVVGQSGLGKSTLINTLFASHLIDSATGDDISALPVTKTTEMKISTHTLVEDRVRLNINVIDTPGFGDFIDNSKAWEPIVKYIKEQHSQYLRKELTAQRERFITDTRVHAILYFLQPNGKELSRLDVEALKRLTEIANVIPVIGKSDTLTLDERTEFRELIQNEFEKYNFKIYPYDSEELTDEELELNRSVRSIIPFAVVGSENEIEINGETFRGRKTRWSAINVEDINQCDFVYLREFLIRTHLQDLIETTSYIHYEGFRARQLIALKENANSRSSAHMSSNAIQR | 2 octamers and 3 octamers | 5 octamers
2 | septin-GFP hetero-octamer containing ΔCTE-Cdc12 (deletion of the C-terminal extension of Cdc12, residues 339-407) (complex, S. cerevisiae, Cdc11, septin of S. cerevisiae; Cdc12, septin of S. cerevisiae; Cdc3, septin of S. cerevisiae; Cdc10, septin of S. cerevisiae; also called ΔCTE-Cdc12 mutant; Cdc12 mutants; source: E. coli BL21 (DE3) Rosetta, co-expressed, purified (amylose resin, Ni-NTA-agarose), same protocol as wild type; not shown: GFP, C-terminal, kept; copies: 2 + 2 + 2 + 2) chain 1: MSGIIDASSALRKRKHLKRGITFTVMIVGQSGSGRSTFINTLCGQQVVDTSTTILLPTDTSTEIDLQLREETVELEDDEGVKIQLNIIDTPGFGDSLDNSPSFEIISDYIRHQYDEILLEESRVRRNPRFKDGRVHCCLYLINPTGHGLKEIDVEFIRQLGSLVNIIPVISKSDSLTRDELKLNKKLIMEDIDRWNLPIYNFPFDEDEISDEDYETNMYLRTLLPFAIIGSNEVYEMGGDVGTIRGRKYPWGILDVEDSSISDFVILRNALLISHLHDLKNYTHEILYERYRTEALSGESVAAESIRPNLTKLNGSSSSSTTTRRNTNPFKQSNNINNDVLNPASDMHGQSTGENNETYMTREEQIRLEEERLKAFEERVQQELLLKRQELLQREKELREIEARLEKEAKIKQEE chain 2: MSAATATAAPVPPPVGISNLPNQRYKIVNEEGGTFTVMLCGESGLGKTTFINTLFQTVLKRADGQQHRQEPIRKTVEIDITRALLEEKHFELRVNVIDTPGFGDNVNNNKAWQPLVDFIDDQHDSYMRQEQQPYRTKKFDLRVHAVLYFIRPTGHGLKPIDIETMKRLSTRANLIPVIAKADTLTAQELQQFKSRIRQVIEAQEIRIFTPPLDADSKEDAKSGSNPDSAAVEHARQLIEAMPFAIVGSEKKFDNGQGTQVVARKYPWGLVEIENDSHCDFRKLRALLLRTYLLDLISTTQEMHYETYRRLRLEGHENTGEGNEDFTLPAIAPARKLSH chain 3: MSLKEEQVSIKQDPEQEERQHDQFNDVQIKQESQDHDGVDSQYTNGTQNDDSERFEAAESDVKVEPGLGMGITSSQSEKGQVLPDQPEIKFIRRQINGYVGFANLPKQWHRRSIKNGFSFNLLCVGPDGIGKTTLMKTLFNNDDIEANLVKDYEEELANDQEEEEGQGEGHENQSQEQRHKVKIKSYESVIEENGVKLNLNVIDTEGFGDFLNNDQKSWDPIIKEIDSRFDQYLDAENKINRHSINDKRIHACLYFIEPTGHYLKPLDLKFMQSVYEKCNLIPVIAKSDILTDEEILSFKKTIMNQLIQSNIELFKPPIYSNDDAENSHLSERLFSSLPYAVIGSNDIVENYSGNQVRGRSYPWGVIEVDNDNHSDFNLLKNLLIKQFMEELKERTSKILYENYRSSKLAKLGIKQDNSVFKEFDPISKQQEEKTLHEAKLAKLEIEMKTVFQQKVSEKEKKLQKSETELFARHKEMKEKLTKQLKALEDKKKQLELSINSASPNVNHSPVPTKKKGFLR chain 4: MDPLSSVQPASYVGFDTITNQIEHRLLKKGFQFNIMVVGQSGLGKSTLINTLFASHLIDSATGDDISALPVTKTTEMKISTHTLVEDRVRLNINVIDTPGFGDFIDNSKAWEPIVKYIKEQHSQYLRKELTAQRERFITDTRVHAILYFLQPNGKELSRLDVEALKRLTEIANVIPVIGKSDTLTLDERTEFRELIQNEFEKYNFKIYPYDSEELTDEELELNRSVRSIIPFAVVGSENEIEINGETFRGRKTRWSAINVEDINQCDFVYLREFLIRTHLQDLIETTSYIHYEGFRARQLIALKENANSRSSAHMSSNAIQR | ~4 octamers | 
3 | septin-GFP hetero-octamer containing ΔAH-Cdc12 (C-terminal deletion of Cdc12 residues 390-407) (complex, S. cerevisiae, Cdc11, septin of S. cerevisiae; Cdc12, septin of S. cerevisiae; Cdc3, septin of S. cerevisiae; Cdc10, septin of S. cerevisiae; also called ΔAH-Cdc12 mutant; ΔAH mutant; source: E. coli BL21 (DE3) Rosetta, co-expressed, purified (amylose resin, Ni-NTA-agarose), same protocol as wild type; not shown: GFP, C-terminal, kept; copies: 2 + 2 + 2 + 2) chain 1: MSGIIDASSALRKRKHLKRGITFTVMIVGQSGSGRSTFINTLCGQQVVDTSTTILLPTDTSTEIDLQLREETVELEDDEGVKIQLNIIDTPGFGDSLDNSPSFEIISDYIRHQYDEILLEESRVRRNPRFKDGRVHCCLYLINPTGHGLKEIDVEFIRQLGSLVNIIPVISKSDSLTRDELKLNKKLIMEDIDRWNLPIYNFPFDEDEISDEDYETNMYLRTLLPFAIIGSNEVYEMGGDVGTIRGRKYPWGILDVEDSSISDFVILRNALLISHLHDLKNYTHEILYERYRTEALSGESVAAESIRPNLTKLNGSSSSSTTTRRNTNPFKQSNNINNDVLNPASDMHGQSTGENNETYMTREEQIRLEEERLKAFEERVQQELLLKRQELLQREKELREIEARLEKEAKIKQEE chain 2: MSAATATAAPVPPPVGISNLPNQRYKIVNEEGGTFTVMLCGESGLGKTTFINTLFQTVLKRADGQQHRQEPIRKTVEIDITRALLEEKHFELRVNVIDTPGFGDNVNNNKAWQPLVDFIDDQHDSYMRQEQQPYRTKKFDLRVHAVLYFIRPTGHGLKPIDIETMKRLSTRANLIPVIAKADTLTAQELQQFKSRIRQVIEAQEIRIFTPPLDADSKEDAKSGSNPDSAAVEHARQLIEAMPFAIVGSEKKFDNGQGTQVVARKYPWGLVEIENDSHCDFRKLRALLLRTYLLDLISTTQEMHYETYRRLRLEGHENTGEGNEDFTLPAIAPARKLSHNPRYKEEENALKKYFTDQVKAEEQRFRQWEQNIVNERIRLNGDLEEIQGKV chain 3: MSLKEEQVSIKQDPEQEERQHDQFNDVQIKQESQDHDGVDSQYTNGTQNDDSERFEAAESDVKVEPGLGMGITSSQSEKGQVLPDQPEIKFIRRQINGYVGFANLPKQWHRRSIKNGFSFNLLCVGPDGIGKTTLMKTLFNNDDIEANLVKDYEEELANDQEEEEGQGEGHENQSQEQRHKVKIKSYESVIEENGVKLNLNVIDTEGFGDFLNNDQKSWDPIIKEIDSRFDQYLDAENKINRHSINDKRIHACLYFIEPTGHYLKPLDLKFMQSVYEKCNLIPVIAKSDILTDEEILSFKKTIMNQLIQSNIELFKPPIYSNDDAENSHLSERLFSSLPYAVIGSNDIVENYSGNQVRGRSYPWGVIEVDNDNHSDFNLLKNLLIKQFMEELKERTSKILYENYRSSKLAKLGIKQDNSVFKEFDPISKQQEEKTLHEAKLAKLEIEMKTVFQQKVSEKEKKLQKSETELFARHKEMKEKLTKQLKALEDKKKQLELSINSASPNVNHSPVPTKKKGFLR chain 4: MDPLSSVQPASYVGFDTITNQIEHRLLKKGFQFNIMVVGQSGLGKSTLINTLFASHLIDSATGDDISALPVTKTTEMKISTHTLVEDRVRLNINVIDTPGFGDFIDNSKAWEPIVKYIKEQHSQYLRKELTAQRERFITDTRVHAILYFLQPNGKELSRLDVEALKRLTEIANVIPVIGKSDTLTLDERTEFRELIQNEFEKYNFKIYPYDSEELTDEELELNRSVRSIIPFAVVGSENEIEINGETFRGRKTRWSAINVEDINQCDFVYLREFLIRTHLQDLIETTSYIHYEGFRARQLIALKENANSRSSAHMSSNAIQR | ~4 octamers | 
